According to paper PMC5987714 (The Journal of Cell Biology, 2018):

T1: mCherry-CAV1^FL (caveolin-1, full length, amino acids 1–178) in cell-free caveolae (UniProt Q03135 1-178)
T1 sequence: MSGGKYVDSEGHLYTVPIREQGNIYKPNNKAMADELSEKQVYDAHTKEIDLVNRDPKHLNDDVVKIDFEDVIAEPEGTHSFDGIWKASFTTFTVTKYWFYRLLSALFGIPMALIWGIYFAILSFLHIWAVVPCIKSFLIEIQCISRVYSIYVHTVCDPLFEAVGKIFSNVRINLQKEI

T2: mCherry-CAV1^Y14-p (CAV1 + ABL1 coexpression) (UniProt Q03135 1-178)
T2 sequence: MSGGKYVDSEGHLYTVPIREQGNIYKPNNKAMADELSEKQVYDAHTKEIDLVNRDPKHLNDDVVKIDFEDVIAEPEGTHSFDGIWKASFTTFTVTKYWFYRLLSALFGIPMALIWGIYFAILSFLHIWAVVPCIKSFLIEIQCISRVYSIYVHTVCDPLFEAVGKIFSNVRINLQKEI

B1: GFP-TRAF2 (TNF receptor–associated factor 2), cell-free (natural protein)
chain: MAAASVTPPGSLELLQPGFSKTLLGTKLEAKYLCSACRNVLRRPFQAQCGHRYCSFCLASILSSGPQNCAACVHEGIYEEGISILESSSAFPDNAARREVESLPAVCPSDGCTWKGTLKEYESCHEGRCPLMLTECPACKGLVRLGEKERHLEHECPERSLSCRHCRAPCCGADVKAHHEVCPKFPLTCDGCGKKKIPREKFQDHVKTCGKCRVPCRFHAIGCLETVEGEKQQEHEVQWLREHLAMLLSSVLEAKPLLGDQSHAGSELLQRCESLEKKTATFENIVCVLNREVERVAMTAEACSRQHRLDQDKIEALSSKVQQLERSIGLKDLAMADLEQKVLEMEASTYDGVFIWKISDFARKRQEAVAGRIPAIFSPAFYTSRYGYKMCLRIYLNGDGTGRGTHLSLFFVVMKGPNDALLRWPFNQKVTLMLLDQNNREHVIDAFRPDVTSSSFQRPVNDMNIASGCPLFCPVSKMEAKNSYVRDDAIFIKAIVDLTGL

Tests used:
TRAF2 = TRAF2 (UniProt Q12933); experiment: two-color single-molecule coincidence; conditions: reference: no ABL1; sites Y14
[1] = biological target: T1, mCherry-CAV1^FL (caveolin-1, full …); experiment: two-color single-molecule fluorescence coincidence
[2] = biological target: T2, mCherry-CAV1^Y14-p (CAV1 + ABL1 …); experiment: two-color single-molecule fluorescence coincidence

Row | Molecule | other: position of coincidence peak (TRAF2) | coincidence C = mCherry/(GFP+mCherry), Gaussian peak [1] | coincidence C = mCherry/(GFP+mCherry), Gaussian peak [2] | stoichiometry N [2]
1 | CAV1 (caveolin-1; cell-free and transfected constructs) 1-178 (from UniProt Q03135) untagged ABL1 coexpressed | stronger; reference 0.75 |  |  | 
2 | B1 |  | 0.75 | 0.6 | ~1 mCherry-CAV1:GFP-TRAF2
